From patent US20190263932A1

Tests used:
[1] = molecular target: recombinant human TrkA protein (human) (UniProt P04629); test: NGF-blocking ELISA on coated human TrkA, 100 nM btNGF; mAb 0.04 nM
[2] = molecular target: recombinant human TrkA protein (human) (UniProt P04629); test: NGF-blocking ELISA on coated human TrkA, 100 nM btNGF; mAb 20 nM
[3] = molecular target: recombinant human TrkA protein (human) (UniProt P04629); test: NGF-blocking ELISA on coated human TrkA, 100 nM btNGF; mAb 5 nM
[4] = molecular target: recombinant human TrkA protein (human) (UniProt P04629); test: NGF-blocking ELISA on coated human TrkA, 100 nM btNGF; mAb 0.08 nM
[5] = molecular target: recombinant human TrkA protein (human) (UniProt P04629); test: NGF-blocking ELISA on coated human TrkA, 100 nM btNGF; mAb 0.31 (printed pM, two-fold series gives nM)
[6] = molecular target: recombinant human TrkA protein (human) (UniProt P04629); test: NGF-blocking ELISA on coated human TrkA, 100 nM btNGF; mAb 10 nM
[7] = molecular target: recombinant human TrkA protein (human) (UniProt P04629); test: NGF-blocking ELISA on coated human TrkA, 100 nM btNGF; mAb 1.25 nM
[8] = molecular target: recombinant human TrkA protein (human) (UniProt P04629); test: NGF-blocking ELISA on coated human TrkA, 100 nM btNGF; mAb 0.63 nM
[9] = molecular target: recombinant human TrkA protein (human) (UniProt P04629); test: NGF-blocking ELISA on coated human TrkA, 100 nM btNGF; mAb 0.16 nM
[10] = molecular target: recombinant human TrkA protein (human) (UniProt P04629); test: NGF-blocking ELISA on coated human TrkA, 100 nM btNGF; mAb 2.5 nM
[11] = molecular target: recombinant human TrkA protein (human) (UniProt P04629); test: NGF-blocking ELISA on coated human TrkA, 100 nM btNGF; mAb 0.02 nM
[12] = molecular target: human TrkA receptor expressed in transfected 3T3 fibroblast cells (human) (UniProt P04629); test: cell-based or functional assay
human TrkA receptor expressed in transfected 3T3 fibroblast cells (human), sequence (P04629 33-796): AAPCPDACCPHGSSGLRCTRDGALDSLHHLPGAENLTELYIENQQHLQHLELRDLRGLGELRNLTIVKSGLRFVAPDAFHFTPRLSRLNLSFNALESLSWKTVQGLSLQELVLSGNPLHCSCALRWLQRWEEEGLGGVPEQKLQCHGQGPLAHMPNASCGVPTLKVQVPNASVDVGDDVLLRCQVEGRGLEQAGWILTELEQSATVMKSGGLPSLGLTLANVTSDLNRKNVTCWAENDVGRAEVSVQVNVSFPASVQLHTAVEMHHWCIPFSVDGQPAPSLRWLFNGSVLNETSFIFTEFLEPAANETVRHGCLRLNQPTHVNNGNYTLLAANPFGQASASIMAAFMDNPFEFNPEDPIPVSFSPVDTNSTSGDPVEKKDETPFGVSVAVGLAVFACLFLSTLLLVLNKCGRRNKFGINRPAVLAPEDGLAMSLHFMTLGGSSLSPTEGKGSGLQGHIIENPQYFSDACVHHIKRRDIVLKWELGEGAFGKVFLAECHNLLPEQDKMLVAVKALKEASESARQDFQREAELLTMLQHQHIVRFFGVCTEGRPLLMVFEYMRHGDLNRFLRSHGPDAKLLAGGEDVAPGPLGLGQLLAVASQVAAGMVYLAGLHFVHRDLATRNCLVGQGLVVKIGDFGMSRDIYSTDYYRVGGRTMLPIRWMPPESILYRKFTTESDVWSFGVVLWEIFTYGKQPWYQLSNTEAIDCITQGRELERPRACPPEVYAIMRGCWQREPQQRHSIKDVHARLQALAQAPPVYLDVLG

[13] = molecular target: TrkA in rat brain, dorsal root ganglia and skin tissue (rat) (UniProt P35739); test: cell-based or functional assay
TrkA in rat brain, dorsal root ganglia and skin tissue (rat), sequence (P35739 33-799): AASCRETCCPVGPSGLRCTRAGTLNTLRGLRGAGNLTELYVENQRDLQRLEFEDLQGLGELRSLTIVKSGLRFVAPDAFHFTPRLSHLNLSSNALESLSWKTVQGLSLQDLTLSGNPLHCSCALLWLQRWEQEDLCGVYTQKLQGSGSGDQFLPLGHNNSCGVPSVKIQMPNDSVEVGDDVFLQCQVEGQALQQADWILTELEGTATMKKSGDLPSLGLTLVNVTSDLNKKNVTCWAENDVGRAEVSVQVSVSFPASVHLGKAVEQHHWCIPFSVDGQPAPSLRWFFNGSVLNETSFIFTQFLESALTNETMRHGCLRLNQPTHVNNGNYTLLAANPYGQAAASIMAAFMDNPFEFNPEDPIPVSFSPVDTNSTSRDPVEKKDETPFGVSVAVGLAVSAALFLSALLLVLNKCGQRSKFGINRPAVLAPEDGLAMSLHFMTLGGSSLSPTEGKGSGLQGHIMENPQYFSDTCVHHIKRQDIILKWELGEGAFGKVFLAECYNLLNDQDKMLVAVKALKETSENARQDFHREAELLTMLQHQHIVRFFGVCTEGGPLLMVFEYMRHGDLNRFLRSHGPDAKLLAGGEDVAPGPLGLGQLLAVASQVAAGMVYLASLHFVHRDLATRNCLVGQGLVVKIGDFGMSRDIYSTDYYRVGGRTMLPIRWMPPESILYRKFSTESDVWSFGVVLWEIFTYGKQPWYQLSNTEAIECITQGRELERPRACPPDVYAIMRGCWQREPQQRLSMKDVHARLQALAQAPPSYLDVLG

[14] = molecular target: rat TrkA receptor expressed in transfected HEK293 cells (rat) (UniProt P35739); test: cell-based or functional assay
rat TrkA receptor expressed in transfected HEK293 cells (rat), sequence (P35739 33-799): as above

recombinant human TrkA protein (human), sequence (P04629 other isoform, or with tags, fused parts or gaps limits assumed): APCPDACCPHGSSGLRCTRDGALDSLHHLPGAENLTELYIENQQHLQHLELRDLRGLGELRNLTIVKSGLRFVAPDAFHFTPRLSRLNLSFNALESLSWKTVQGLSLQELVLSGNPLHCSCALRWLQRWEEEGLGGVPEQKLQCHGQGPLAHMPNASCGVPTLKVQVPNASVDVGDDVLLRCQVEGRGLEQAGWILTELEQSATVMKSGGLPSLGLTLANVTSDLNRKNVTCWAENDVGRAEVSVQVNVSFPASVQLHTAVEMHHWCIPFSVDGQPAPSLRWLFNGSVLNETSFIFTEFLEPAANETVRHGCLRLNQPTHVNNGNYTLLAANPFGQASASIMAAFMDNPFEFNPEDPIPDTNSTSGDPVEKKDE
rat β-NGF, sequence (P25427 122-241 limits assumed): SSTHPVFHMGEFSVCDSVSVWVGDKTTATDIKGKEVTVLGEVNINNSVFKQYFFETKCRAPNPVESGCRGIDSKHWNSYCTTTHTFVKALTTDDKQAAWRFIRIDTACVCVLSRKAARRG

Absorbance 450 nm [1] | Absorbance 450 nm [2] | Absorbance 450 nm [3] | Absorbance 450 nm [4] | Absorbance 450 nm [5] | Absorbance 450 nm [6] | Absorbance 450 nm [7] | Absorbance 450 nm [8] | Absorbance 450 nm [9] | Absorbance 450 nm [10] | Absorbance 450 nm [11] | Substance | further results
1.1 | 1.13 | 1.1 | 1.16 | 1.19 | 0.97 | 1.04 | 1.14 | 1.12 | 1.17 | 1.14 | IgG1 isotype control antibody | 
1.15 | 1.12 | 1.08 | 1.14 | 1.14 | 1.11 | 1.03 | 1.13 | 1.13 | 1.07 | 1.13 | IgG4 isotype control antibody | pTrkA counts per second, +mAb 1 hr (1 uM), no NGF (counts per second) [12]: 28400; pTrkA counts per second, +mAb 24 hr (1 uM), no NGF (counts per second) [12]: 28700; pTrkA counts per second, NGF + mAb 1 hr (1 uM) (counts per second) [12]: 238000; pTrkA counts per second, NGF + mAb 24 hr (1 uM) (counts per second) [12]: 290000; pTrkA counts per second, DRG, NGF stimulated, 10 mg/kg SC (counts per second) [13]: 483000; pTrkA counts per second, DRG, baseline, 10 mg/kg SC (counts per second) [13]: 109000; pTrkA counts per second, brain, NGF stimulated, 10 mg/kg SC (counts per second) [13]: 507000; pTrkA counts per second, brain, baseline, 10 mg/kg SC (counts per second) [13]: 70600; pTrkA counts per second, skin, NGF stimulated, 10 mg/kg SC (counts per second) [13]: 33300; pTrkA counts per second, skin, baseline, 10 mg/kg SC (counts per second) [13]: 14500
 |  |  |  |  |  |  |  |  |  |  | rat β-NGF (from UniProt P25427 122-241) (ligand) | pTrkA counts per second, 10 ug/mL NGF alone (mAb A column) (counts per second) [14]: 2.13e+06; pTrkA counts per second, 10 ug/mL NGF alone (mAb B column) (counts per second) [14]: 4.29e+06; pTrkA counts per second, 10 ug/mL NGF alone (mAb C column) (counts per second) [14]: 2.81e+06; pTrkA counts per second, 10 ug/mL NGF alone (mAb D column) (counts per second) [14]: 3.25e+06; pTrkA counts per second, 10 ug/mL NGF alone (mAb E column) (counts per second) [14]: 2.76e+06
